Experimental data published in patent CN115521375A (INST PASTEUR SHANGHAI CAS, dated 2022).

B1: 单抗3H3 (antibody, V domains shown)
VH: QVQLQQPGAELVRPGASVKLSCKASGYSFTRFWMNWVKQRPGQGLEWIGMIHPSDSETRLNQKFKDKATLTVDKSSTTAYMQLSSPTSEDSAVYYCARKDYDYDAWFAYWGQGTLVTVSA
VL: DIVLTQSPASLAVSLGQRATISCRASKSVSASVYSYMHWYQQKPGQPPKLLIYLASSLESGVPARFSGSGSGTDFTLNIHPVEEEDAATYYCHHSRELPPAFGGGTKLEIKR
notes: also called 抗体3H3
B2: 单抗5G2 (antibody)
heavy: EVLLQQSGPELVKPGASVKIPCKASGYTFTDYNMDWVKQSHGKSLEWIGDINPNSGFIIYNQKFKGKASLTVDKSSSTAYMELRSLTSEDTAVYYCAREGYGNNFDYWGQGTTLSVSSAKTTPPSVYPLAPGCGDTTGSSVTLGCLVKGYFPESVTVTWNSGSLSSSVHTFPALLQSGLYTMSSSVTVPSSTWPSQTVTCSVAHPASSTTVDKKLEPSGPISTINPCPPCKECHKCPAPNLEGGPSVFIFPPNIKDVLMISLTPKVTCVVVDVSEDDPDVQISWFVNNVEVHTAQTQTHREDYNSTIRVVSTLPIQHQDWMSGKEFKCKVNNKDLPSPIERTISKIKGLVRAPQVYILPPPAEQLSRKDVSLTCLVVGFNPGDISVEWTSNGHTEENYKDTAPVLDSDGSYFIYSKLNMKTSKWEKTDSFSCNVRHEGLKNYYLKKTISRSPGK
light: DILLTQSPTILSVSPGERVSFSCRASQSIGTSIHWYQQRTKGSPRLLIKYASESISGIPSRFSGSGSGTDFTLSINSVESEDIGDYYCQQSYSWPTTFGAGTKLELK
notes: also called 抗体5G2

Assays:
Experiment in all cases: cell-based or functional assay
[1] = target: SARS-CoV-2 B.1.1.7假病毒的S蛋白 (SARS-CoV-2 B.1.1.7)
[2] = target: SARS-CoV-2 B.1.351假病毒的S蛋白 (SARS-CoV-2 B.1.351)
[3] = target: SARS-CoV-2 B.1.617假病毒的S蛋白 (SARS-CoV-2 B.1.617)

Row | Binder | 中和IC50, 假病毒中和试验 [1] [µg/mL] | 中和IC50, 假病毒中和试验 [2] [µg/mL] | 中和IC50, 假病毒中和试验 [3] [µg/mL] | 半数抑制浓度(IC50), 假病毒中和试验 [1] [µg/mL] | 半数抑制浓度(IC50), 假病毒中和试验 [2] [µg/mL] | 半数抑制浓度(IC50), 假病毒中和试验 [3] [µg/mL]
1 | B1 | 0.191 | 0.107 | 0.098 | – | – | –
2 | B2 | – | – | – | 0.482 | 0.367 | 0.103
